Results: patent US20210246218A1 (LYVGEN BIOPHARMA SUZHOU, published 2021)

Legend:
Experiment in all cases: flow cytometry on CHO cells over-expressing the target
[1] = molecular target: T1, human LAG-3 on CHO cells (human, UniProt P18627 23-525)
T1 construct: whole, on cells
T1 sequence (looked up): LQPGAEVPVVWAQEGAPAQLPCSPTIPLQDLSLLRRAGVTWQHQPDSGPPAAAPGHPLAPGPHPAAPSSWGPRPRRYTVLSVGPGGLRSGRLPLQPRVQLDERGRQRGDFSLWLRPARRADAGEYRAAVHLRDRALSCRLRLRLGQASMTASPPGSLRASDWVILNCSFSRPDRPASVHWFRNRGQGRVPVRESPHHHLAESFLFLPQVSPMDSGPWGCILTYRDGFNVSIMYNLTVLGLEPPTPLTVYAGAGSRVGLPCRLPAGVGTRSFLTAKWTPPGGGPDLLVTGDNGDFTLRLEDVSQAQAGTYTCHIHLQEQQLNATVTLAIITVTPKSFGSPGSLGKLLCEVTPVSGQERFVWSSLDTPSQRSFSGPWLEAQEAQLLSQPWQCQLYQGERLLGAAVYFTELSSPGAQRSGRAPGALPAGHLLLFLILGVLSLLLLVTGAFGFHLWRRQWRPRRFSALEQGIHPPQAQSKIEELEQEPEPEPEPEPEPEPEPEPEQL
Method: (§1) The cells were resuspended in ice cold assay buffer at 2*10\hat{ }6/mL and transferred to 96-well V-bottom plate with 100 μL/well. […] The plate was incubated in the dark for 2 hours at 4° C. The cells were washed 3 times by centrifugation at 1000 g for 3 min and resuspended in 100 μL ice cold assay buffer containing goat F(ab′)₂ anti-human IgG-Fc (PE) or PE goat anti-mouse IgG antibody. The plate was incubated in the dark for another 1 hour at 4° C. The cells were washed 2 times by centrifugation at 1000 g for 3 min and resuspended in ice cold assay buffer containing 2% PFA and analyzed on the flow cytometer immediately.

[2] = molecular target: T2, human VISTA on CHO cells (human, UniProt Q9H7M9 33-311)
T2 construct: whole, on cells
Method: as §1

[3] = molecular target: T3, human B7-H3 on CHO cells (human, UniProt Q5ZPR3 29-534)
T3 construct: whole, on cells
T3 sequence (looked up): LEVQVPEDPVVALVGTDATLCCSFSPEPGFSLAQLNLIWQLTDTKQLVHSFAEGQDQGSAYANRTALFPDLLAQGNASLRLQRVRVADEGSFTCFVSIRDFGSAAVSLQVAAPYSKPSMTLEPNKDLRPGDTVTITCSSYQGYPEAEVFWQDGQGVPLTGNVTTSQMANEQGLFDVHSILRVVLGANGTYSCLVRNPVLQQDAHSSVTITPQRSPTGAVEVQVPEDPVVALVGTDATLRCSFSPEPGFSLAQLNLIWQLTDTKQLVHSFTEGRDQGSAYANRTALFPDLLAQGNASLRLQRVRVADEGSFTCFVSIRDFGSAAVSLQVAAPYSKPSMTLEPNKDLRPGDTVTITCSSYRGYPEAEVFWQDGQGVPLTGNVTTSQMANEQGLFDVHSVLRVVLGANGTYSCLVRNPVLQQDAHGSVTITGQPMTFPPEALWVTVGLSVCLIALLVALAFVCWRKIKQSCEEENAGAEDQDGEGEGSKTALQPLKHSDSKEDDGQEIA
Method: as §1

[4] = molecular target: T4, human B7-H4 on CHO cells (human, UniProt Q7Z7D3 25-282)
T4 construct: whole, on cells
T4 sequence (looked up): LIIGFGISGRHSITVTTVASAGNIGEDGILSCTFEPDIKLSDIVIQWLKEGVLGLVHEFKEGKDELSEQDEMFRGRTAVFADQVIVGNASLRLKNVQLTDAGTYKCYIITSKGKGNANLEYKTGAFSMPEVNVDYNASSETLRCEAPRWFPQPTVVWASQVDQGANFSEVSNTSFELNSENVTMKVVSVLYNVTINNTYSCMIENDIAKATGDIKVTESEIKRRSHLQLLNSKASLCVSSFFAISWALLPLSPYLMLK
Method: as §1

[5] = molecular target: T5, human TIGIT on CHO cells (human, UniProt Q495A1 22-244)
T5 construct: whole, on cells
T5 sequence (looked up): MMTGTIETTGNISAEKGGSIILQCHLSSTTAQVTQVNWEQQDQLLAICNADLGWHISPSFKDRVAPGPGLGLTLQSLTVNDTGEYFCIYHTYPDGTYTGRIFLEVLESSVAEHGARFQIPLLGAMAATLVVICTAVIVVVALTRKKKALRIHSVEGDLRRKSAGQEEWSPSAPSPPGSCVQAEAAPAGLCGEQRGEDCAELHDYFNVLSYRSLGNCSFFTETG
Method: as §1

[6] = molecular target: T6, human PD-L1 on CHO cells (human, UniProt Q9NZQ7 19-290)
T6 construct: whole, on cells
Method: as §1

[7] = molecular target: T7, human CD20 on CHO cells (human, UniProt P11836 1-297)
T7 construct: whole, on cells
T7 sequence (looked up): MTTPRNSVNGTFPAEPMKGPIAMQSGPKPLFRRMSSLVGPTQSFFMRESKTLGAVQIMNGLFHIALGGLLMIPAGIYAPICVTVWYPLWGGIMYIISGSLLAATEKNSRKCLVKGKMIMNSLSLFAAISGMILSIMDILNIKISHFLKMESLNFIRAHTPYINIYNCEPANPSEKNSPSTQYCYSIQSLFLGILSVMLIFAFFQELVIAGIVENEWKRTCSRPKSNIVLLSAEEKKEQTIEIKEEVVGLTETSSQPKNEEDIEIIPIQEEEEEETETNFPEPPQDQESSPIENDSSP
Method: as §1

[8] = molecular target: T8, human CD47 on CHO cells (human, UniProt Q08722 19-323)
T8 construct: whole, on cells
Method: as §1

[9] = molecular target: T9, human CD27 on CHO cells (human, UniProt P26842 20-260)
T9 construct: whole, on cells
Method: as §1

[10] = molecular target: T10, human CD200R1 on CHO cells (human, UniProt Q8TD46 25-348)
T10 construct: whole, on cells
T10 sequence (looked up): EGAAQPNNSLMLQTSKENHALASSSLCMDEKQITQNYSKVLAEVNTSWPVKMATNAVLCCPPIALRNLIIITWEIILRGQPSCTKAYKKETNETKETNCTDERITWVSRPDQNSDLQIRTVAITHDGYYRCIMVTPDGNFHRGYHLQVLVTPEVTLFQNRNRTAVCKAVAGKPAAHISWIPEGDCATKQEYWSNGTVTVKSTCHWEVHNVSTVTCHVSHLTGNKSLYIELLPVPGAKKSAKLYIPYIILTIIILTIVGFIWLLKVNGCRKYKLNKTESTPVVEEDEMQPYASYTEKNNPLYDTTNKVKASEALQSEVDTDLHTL
Method: as §1

Measured: binding result

T6 sequence (Q9NZQ7 19-290): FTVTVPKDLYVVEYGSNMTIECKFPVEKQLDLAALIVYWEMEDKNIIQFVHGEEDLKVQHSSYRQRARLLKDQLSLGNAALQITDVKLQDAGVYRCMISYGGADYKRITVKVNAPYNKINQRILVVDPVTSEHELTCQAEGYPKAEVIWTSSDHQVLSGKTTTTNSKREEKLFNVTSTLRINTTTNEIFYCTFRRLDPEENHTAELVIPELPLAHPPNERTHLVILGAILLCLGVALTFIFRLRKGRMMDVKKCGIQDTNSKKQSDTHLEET
T9 sequence (P26842 20-260): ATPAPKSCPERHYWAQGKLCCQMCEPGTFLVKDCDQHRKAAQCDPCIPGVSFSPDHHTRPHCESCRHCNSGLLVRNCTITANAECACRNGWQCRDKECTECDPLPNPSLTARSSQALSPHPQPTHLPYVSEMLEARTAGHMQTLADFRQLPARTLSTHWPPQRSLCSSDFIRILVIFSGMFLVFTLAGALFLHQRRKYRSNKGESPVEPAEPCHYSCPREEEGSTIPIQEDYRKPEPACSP

B1: Clone 3712-IgG1v (IgG1v/kappa) (antibody)
heavy: QVQLVQSGAEVKKPGASVKVSCKASGYTFAGFEMHWVRQAPGQGLEWMGAIDPKTGGTDYNQKFKDRVTMTRDTSISTAYMELSRLRSDDTAVYYCARDLGYFDVWGQGTLVTVSSASTKGPSVFPLAPSSKSTSGGTAALGCLVKDYFPEPVTVSWNSGALTSGVHTFPAVLQSSGLYSLSSVVTVPSSSLGTQTYICNVNHKPSNTKVDKKVEPKSCDKTHTCPPCPAPELLGPSVFLFPPKPKDTLMISRTPEVTCVVVDVEHEDPEVKFNWYVDGVEVHNAKTKPREEQYNSTYRVVSVLTVLHQDWLNGKEYKCKVSNKALPAPIEKTISKAKGQPREPQVYTLPPSREEMTKNQVSLTCLVKGFYPSDIAVEWESNGQPENNYKTTPPVLDSDGSFFLYSKLTVDKSRWQQGNVFSCSVMHEALHNHYTQKSLSLSPGK
light: DIQMTQSPSSLSASVGDRVTITCRASQDIRSNLNWYQQKPGGAVKLLIYYTSRLHSGVPSRFSGSGSGTDYTLTISSLQPEDFATYFCQQSEKLPRTFGGGTKVEIRRTVAAPSVFIFPPSDEQLKSGTASVVCLLNNFYPREAKVQWKVDNALQSGNSQESVTEQDSKDSTYSLSSTLTLSKADYEKHKVYACEVTHQGLSSPVTKSFNRGEC
notes: copies: 2 + 2
no binding: all assays above
